This experiment has as its target recombinant His-tagged MDM2 (amino acids 1-118) (human) (UniProt Q00987). Nature of the experiment: FP; competition with PMDM6-F.

This note sets out measurements from article PMC2794250, “An MDM2 antagonist (MI-319) restores p53 functions and increases the life span of orally treated follicular lymphoma bearing animals” (2009).

One may read the Ki as the equilibrium dissociation constant of an inhibitor or competing ligand from its target. Consider “natural p53 peptide (from UniProt P04637)”, for which the Ki is 6.7 µM.
